# Measurements taken from US20160138094, “Direct, Programmable Detection of Epigenetic DNA Cytosine Modifications using TAL Effectors” (UNIVERSITÄt KONSTANZ, published 2016).
# Legend:
# [1] = target: T1, TALE_97 (HD at repeat 5 opposite C6) (Xanthomonas axonopodis pv. citri …, UniProt B2SU53); assay: inhibition; inhibition of Klenow exo- primer extension, MgCl2, room temperature; conditions: tags: N-terminal thioredoxin and S-tag, C-terminal His6; label: 5'-32P on primer; 5' overhang template with primer duplex at template 3' end
# Procedure: Templates as shown in FIG. 2 (SEQ ID NOs: 9 to 14) and primer p97_rev (SEQ ID NO: 15; 5′-³²P-end labeled as above) were diluted from 5× stocks (500 nM and 166.5 nM, respectively) into 6 μL Hybridization buffer (40 mM Tris-HCl (pH 8.0), 100 mM NaCl, 10 mM MgCl₂, 0.2 mg/ml BSA, 10% glycerol) to final concentrations of 100 nM and 33.3 nM and hybridized by incubating at 95° C. for 5 min and subsequently at room temperature for 30 min. TALE proteins with various RVDs at position 5 were added in 6 μL TALE storage buffer (200 mM NaCl, 20 mM Tris-HCl (pH 7.5), 1 mM DTT, 10% glycerol) at varying concentrations and mixtures were incubated at room temperature for 30 min. 12 μL of a mixture of 25 mU Klenow Fragment of E. coli DNA polymerase I (3′-5′-exo⁻, New England Biolabs) and 200 μM of each dNTP in Binding buffer (30 mM Tris-HCl (pH 8.0), 150 mM NaCl, 5 mM MgCl₂, 0.1 mg/ml BSA, 0.5 mM DTT, 7.5% glycerol) were added, resulting in final concentrations of 8.325 nM and 25 nM for primer and template, respectively. These mixtures were incubated at room temperature for additional 15 min. 12 μL of PAGE loading buffer (80% formamide, 2 mM EDTA) were added, the mixtures were incubated at 95° C. for 5 min and cooled to 4° C. […] Gel was dried and data recorded on a phosphorimager. […]
# [2] = target: T1, TALE_97 (HD at repeat 5 opposite C6); assay: EMSA; Tris, NaCl, MgCl2, salmon sperm DNA, room temperature; conditions: tags: N-terminal thioredoxin and S-tag, C-terminal His6; label: 5'-32P on reverse strand
# Text: Oligonucleotides 97_C2/5/6/11/12/14 mC_rev (SEQ ID NO: 5) and 97_T3/4/8/9/10/16 mC_rev (SEQ ID NO: 8) were 5′-³²P-end labeled using γ-³²P-ATP and T4 polynucleotide kinase (Fermentas) and purified using a G-25 gel filtration column (GE Healthcare). Oligonucleotides were hybridized pairwise (97/97_C2/5/6/11/12/14 mC_rev (SEQ ID NO: 3/SEQ ID NO: 5); 97_C2/5/6/11/12/14 mC/97_C2/5/6/11/12/14 mC_rev (SEQ ID NO: 4/SEQ ID NO: 5); 97_T3/4/8/9/10/16 C/97_T3/4/8/9/10/16 mC_rev (SEQ ID NO: 6/SEQ ID NO: 8); 97_T3/4/8/9/10/16 mC/97_T3/4/8/9/10/16 mC_rev (SEQ ID NO: 7/SEQ ID NO: 8)) at a concentration of 12.5 nM, respectively, by incubating at 95° C. for 5 min and subsequently at room temperature for 30 min in Hybridization buffer (40 mM Tris-HCl (pH=8.0), 100 mM NaCl, 10 mM MgCl₂, 100 ng/μl salmon sperm DNA (Ambion), 0.2 mg/ml BSA, 10% glycerol). For TALE-binding, to 6 μL of the hybridized DNA duplexes, 6 μL of TALE storage buffer (20 mM Tris-HCl pH=7.5, 200 mM NaCl, 10% Glycerol, 1 mM DTT) with varying concentrations of TALE proteins were added and mixtures were incubated at room temperature for 30 min. Mixtures were loaded onto an analytical, non-denaturing PAGE-gel (0.5 mm, 50 cm length) that was run in 0.25×TB buffer at 12 W and room temperature. Gel was dried and data recorded on a phosphorimager.
Binder,IC50 [1] [nM],binding result [2]
t97 template / p97_rev primer (dsDNA) DNA 1: TGGATTCCCACTCTTCAGCCCCAGCGTTACAGCATCTTCAGTGGCTTCTTCCACCGTGAGCTCTTCCGTTTCCACATCC DNA 2: GGATGTGGAAACGGAAGA,106,–
97 / 97_C2/5/6/11/12/14mC_rev duplex (dsDNA) DNA 1: AGACGGCATACGATCTTCCGTTTCCACATCCACCACATCCCAACAGAGCAGCGGGAGCAGCAGTAAAGATCGGAAGAGC DNA 2: GCTCTTCCGATCTTTACTGCTGCTCCCGCTGCTCTGTTGGGATGTGGTGGATGTGGAAACGGAAGATCGTATGCCGTCT,–,binds
